From patent publication US6887705B1, “Tyrosine phosphorylated cleavage furrow-associated proteins (PSTPIPs)” (Genentech, Inc., priority 1997, dated 2005)

T1: full-length PTP HSCF with an N-terminal hemagglutinin epitope tag (UniProt Q61152 1-453)
T1 construct: range 1-453; In vitro translated or expressed in COS cells; also called the phosphatase; wild type PTP HSCF
T1 sequence (looked up): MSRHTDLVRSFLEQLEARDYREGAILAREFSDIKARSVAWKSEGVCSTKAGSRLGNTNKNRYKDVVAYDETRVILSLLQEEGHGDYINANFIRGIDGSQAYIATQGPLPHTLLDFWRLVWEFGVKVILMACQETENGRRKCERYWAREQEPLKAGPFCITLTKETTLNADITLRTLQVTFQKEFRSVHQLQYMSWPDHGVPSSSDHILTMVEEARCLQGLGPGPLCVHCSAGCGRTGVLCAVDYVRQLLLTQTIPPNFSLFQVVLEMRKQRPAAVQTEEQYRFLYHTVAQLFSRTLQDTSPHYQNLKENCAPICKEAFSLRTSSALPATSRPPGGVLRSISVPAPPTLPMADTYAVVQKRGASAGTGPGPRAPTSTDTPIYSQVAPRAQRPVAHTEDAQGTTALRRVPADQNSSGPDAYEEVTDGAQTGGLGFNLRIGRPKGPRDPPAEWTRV

B1: PSTPIP: murine PST Phosphatase Interacting Protein, 415 residues (SEQ ID NO:1) (protein)
chain: MMAQLQFRDAFWCRDFTAHTGYEVLLQRLLDGRKMCKDVEELLRQRAQAEERYGKELVQIARKAGGQTEMNSLRTSFDSLKQQTENVGSAHIQLALALREELRSLEEFRERQKEQRKKYEAIMDRVQKSKLSLYKKTMESKKAYDQKCRDADDAEQAFERVSANGHQKQVEKSQNKAKQCKESATEAERVYRQNIEQLERARTEWEQEHRTTCEAFQLQEFDRLTILRNALWVHCNQLSMQCVKDDELYEEVRLTLEGCDVEGDINGFIQSKSTGREPPAPVPYQNYYDREVTPLIGSPSIQPSCGVIKRFSGLLHGSPKTTPSAPAASTETLTPTPERNELVYASIEVQATQGNLNSSAQDYRALYDYTAQNSDELDISAGDILAVILEGEDGWWTVERNGQRGFVPGSYLEKL
modifications: Mus Musculus
B2: W232A mutant of PST PIP, C-terminal FLAG (other)
chain: MMAQLQFRDAFWCRDFTAHTGYEVLLQRLLDGRKMCKDVEELLRQRAQAEERYGKELVQIARKAGGQTEMNSLRTSFDSLKQQTENVGSAHIQLALALREELRSLEEFRERQKEQRKKYEAIMDRVQKSKLSLYKKTMESKKAYDQKCRDADDAEQAFERVSANGHQKQVEKSQNKAKQCKESATEAERVYRQNIEQLERARTEWEQEHRTTCEAFQLQEFDRLTILRNALAVHCNQLSMQCVKDDELYEEVRLTLEGCDVEGDINGFIQSKSTGREPPAPVPYQNYYDREVTPLIGSPSIQPSCGVIKRFSGLLHGSPKTTPSAPAASTETLTPTPERNELVYASIEVQATQGNLNSSAQDYRALYDYTAQNSDELDISAGDILAVILEGEDGWWTVERNGQRGFVPGSYLEKLDYKDDDDK
notes: In vitro translated or expressed in COS cells; also called W232A PST PIP; PST PIP with an alanine replacement mutation at tryptophan232

Key:
3T3 cells = assay: Overexpression of PSTPIP in transfected 3T3 cells, confocal microscopy; type: cell-based, murine; conditions: overexpression under cytomegalovirus promoter
Description: Rabbit polyclonal antibodies were produced against a GST-PSTPIP fusion protein. The complete PSTPIP-GST fusion protein was purified on GSH-sepharose and injected intramuscularly at 2 sites with 200 μg fusion protein and subcutaneously at multiple sites with a total of 300 μg PSTPIP-GST fusion protein in Complete Freunds Adjuvant. Rabbits were boosted every 3 weeks with 100 μg fusion protein in Incomplete Freunds. 15 ml of rabbit sera was reacted with 0.5 mg PSTPIP-GST-GSH-Sepharose for 3 hours at 4° C. with gentle rotation. The resin was collected by centrifugation and washed with 10 column volumes of PBS. Immunoglobulin was eluted from the affinity matrix with 100 mM acetic acid, 500 mM NaCl, neutralized with NaOH, and then dialyzed overnight with PBS. NIH 3T3 cells were seeded at 100,000 cells per chamber slide and allowed to adhere overnight. The cells were transfected using Lipofectamine™ (2 ug pRK.PIP.FLAG.C/12 ul Lipofectamine in 0.8 ml OPTI-MEM) for 5 hours. The DNA/Lipofectamine™ solution was removed and fresh serum containing medium added. […] Cells were stained with 0.4 μg/ml rabbit anti-PIP or 0.4 μg/ml rabbit IgG and detected with Cy3-corjugated goat anti-rabbit. […]

[1] = target: T1, full-length PTP HSCF with an N-terminal …; assay: co-immunoprecipitation from co-transfected COS cells
Text: The resultant precipitates were resolved on SDS polyacrylamide gels and probed with anti-FLAG antibody (to detect PST PIP), anti-HA antibody (to detect PTP HSCF) and anti-pY (anti-phosphotyrosine antibody) to detect this modified residue on these proteins. Note that the $W232A$ mutant of PST PIP is neither coprecipitated with PTP HSCF nor is it "substrate trapped" (as determined by hyperphosphorylation) by the dominant negative (C-S) form of PTP HSCF, while the wild type form of the protein (PST PIP wt) is found in a complex with precipitated PTP HSCF and is hyperphosphorylated ("substrate trapped" (Jia et al., *Science* 268(5218):1754–1758 (1995); Garton et al., *Mol. Cell. Biol.* 16(11):6408–6418 (1996); Flint et al., *Proc. Natl. Acad. Sci. USA* 94(5):1680–1685 (1997); Spencer et al. (1997), supra)) by dominant negative (C-S) PTP HSCF.
In vitro binding analyses between various PTP HSCF and PST PIP constructs were performed as previously described (Spencer et al, (1997), supra). Briefly, plasmids were transcribed and translated in vitro using the TnT Rabbit Reticulocyte Lysate System (Promega). […] Samples were than reacted with GST fusion proteins at various concentrations, and the bound proteins were centrifuged using glutathione-sepharose beads and analyzed on SDS polyacrylamide gels. […]

Molecule | cell morphology on overexpression (3T3 cells) | binding result [1]
B1 | induced a remarkable morphological change in a high percentage of cells | –
B2 | – | no binding
